This note sets out measurements from article PMC5715787, “Structural basis for antibody recognition of the NANP repeats in Plasmodium falciparum circumsporozoite protein” (Proceedings of the National Academy of Sciences of the …, 2017).

Common to all, as to test: ITC; MicroCal Auto-iTC200; triplicate (or duplicate) experiments; details in SI
Details in all cases: both partners purified
(In general: In ITC the heat of successive injections is recorded.)

Assay [1] has as its target T1, (NPNA)3 peptide, Ac-[residues removed]-NH2 (Plasmodium falciparum CSP repeat …).
T1 construct: also called 12-mer

The next assay addresses (NPNA)2 peptide (Plasmodium falciparum CSP repeat …).
The target of assay [2] is T2, Ac-DPNANPNVDPNA-NH2 peptide (Plasmodium falciparum CSP repeat …).
T2 chain: Ac-DPNANPNVDPNA-NH2

In assay [3] the target is T3, Ac-NPNVDPNANPNV-NH2 peptide (Plasmodium falciparum CSP repeat …).
T3 chain: Ac-NPNVDPNANPNV-NH2

B1: Fab317 (Fab, V domains shown)
VH: QMQLVESGGGVVQPGRSLRLSCTASGFTFSTYAMHWVRQSPGQGLQWVAVISYHSTNKYYEDSVRGRFTISRDNSKNTLYLQMNSLRAEDTAVYYCARDGYSSSFFDFWGQGTLVTVSS
VL: DIQMTQSPSTLSASVGDRVAITCRASQSISRWLAWYQQQPGKAPKLLMSGASVLESGVPSRFSGSGSGTEFTLTISSLQPDDFATYYCQHYNSYFVTFGQGTKVEIK
B1: in assay [1], the affinity, expressed as Kd, was 78 nM; the dH was -15700 cal/mol; the stoichiometry N (usually the number of molecules, sites or subunits per partner or assembly) was found to be 1.27. Besides, in the assay with (NPNA)2 peptide, the affinity, expressed as Kd, was 173 nM; the dH was -12100 cal/mol; the “stoichiometry N” value came to 1.41. Further, in assay [2], the Kd – broadly, the constant that tells how readily two partners part at equilibrium – came to 448 nM; the dH is -9390 cal/mol; the “stoichiometry N” value stood at 1.64.

B2: Fab311 (Fab, V domains shown)
VH: QVQLVESGGGVVPPGRSLRLSCATSGFTFSNYGMHWVRQAPGKGLEWVAIIWYDGSRNFYAASVEGRFTISRDNSKNTLYLQMNSLRVEDTAVYYCARAAYYDTSGYGDYWGQGTLVTVSS
VL: QSVLTQPPSVSGAPGQTVTISCTGGSSNIGAGYDVHWYQQLPGTAPKLLIYGNINRPSGVPDRFSGSKSGTSASLAITGLQAEDEADYYCQSYDRRLSGSWVFGGGTKLTVL
For the molecule B2, the Kd was 305 nM in assay [1], 296 nM with (NPNA)2 peptide, 1790 nM in assay [3] and 1370 nM in assay [2]. Besides, the dH was -29800 cal/mol in assay [1], -16400 cal/mol in the assay with (NPNA)2 peptide, -18700 cal/mol in assay [3] and -20200 cal/mol in assay [2]. Also, the “stoichiometry N” value was found to be 0.74 in assay [1], 1.5 with (NPNA)2 peptide, 1.24 in assay [3] and 1.2 in assay [2].
